For experiment [1], the system named is OT-I CD8+ T cells. As to the kind of experiment: In vivo cross-presentation assay with free 6H8 antibody administered concurrently. Also on record: species or system mouse. The settings on record: 72 hours. As to the method:
(1) CFSE-labeled CD8^+ T cells of an OT-I/CD45.1 mouse were transferred to recipient mice from the tail vein, with 6H8-OVA [or 6H8 (F(ab′)2)—OVA, or OVA, or IgG2a-OVA] (0.3 μg) and the free 6H8 antibody [or 6H8 (F(ab′)2) or IgG2a] (30 μg) administered from the tail vein concurrently. (2) 72 hours later, the spleen was recovered from each mouse, and 2×10^6 splenocytes were stained with the PE-CD45.1 antibody in a 96-well round-bottomed plate for 30 minutes (while cooling on ice). (3) The CFSE intensity of CD45.1-positive cells (OT-I CD8^+ T cells) was determined using FACS Canto (BD).

Experiment [2] relates to cell surface HSP90 on DC2.4 cells. The experiment is described as follows: Inhibition of 6H8-OVA cross-presentation by pre-treatment of DC2.4 cells with antibodies. The format is cell-based. The settings on record: antibody 20 μg/ml 15 minutes, then 6H8-OVA 3 or 1 μg/ml, IFNγ ELISA. As to the method:
Pellets of DC2.4 cells (1.5×10^6 cells) were incubated with 20 μg/ml of each antibody [6H8D2 (6H8), 2A6E9 (2A6) or 4B6G12 (456)] at 37° C. with 5% CO2 for 15 minutes. Subsequently, 6H8-OVA was added to a concentration of 3 or 1 μg/ml, and the pellets were incubated at 37° C. with 5% CO2 for 3 hours. After being washed to remove the unreacted antibody and 6H8-OVA, the cells were fixed in 0.5% para-formaldehyde. These cells (1×10^4 cells) were co-cultured with 1×10^5 OT-I CD8^+ T cells in a 96-well round-bottomed plate at 37° C. with 5% CO2; the supernatant was recovered as appropriate and assayed for IFNγ according to a standard ELISA method.
(In an ELISA, binding on a coated surface is turned into a signal by an enzyme label.)

The subject of experiment [3] is GM-CSF-dependent bone marrow-derived dendritic cells. As to the kind of experiment: Cytokine production from bone marrow-derived dendritic cells on immobilized 6H8 antibody. The format is cell-based. Particulars: antibody immobilized on 96-well plate, 12 hours. As to the method:
(1) […] of the 6H8 antibody diluted in PBS (10 mg/ml) was added to a 96-well flat plate (Corning Incorporated, product number 3596), and the plate was treated at 4° C. overnight. (2) The plate was washed twice with […] of PBS to remove the excess 6H8 antibody. (3) On day 5 after induction, GM-CSF-dependent bone marrow-derived dendritic cells were added to the plate from (2) at 1×10^5/well and cultured in an incubator at 37° C. with 5% CO2. (4) 12 hours after the start of cultivation, the supernatant was recovered; the amounts of cytokines and chemokines in the supernatant were determined according to a standard protocol using the Bio-Plex suspension array system with 23-Plex Panel (Bio-rad, 171-F11241).

Another experiment relates to specific CTL. As to the kind of experiment: Specific CTL induction in immunized mice, comparison with IFA+OVA257-264. The format is in vivo, mouse. Particulars: immunized twice at 1-week interval, tail vein; tetramer-positive cells in CD8-positive cells. As to the method: Mice were immunized twice with 6H8-OVA or IFA+OVA at a 1-week interval. For 6H8-OVA, the specified amount of 6H8-OVA was diluted in 200 μl of PBS and administered from the tail vein. For IFA+OVA, an emulsion was prepared so that the specified amount of OVA257-264 peptide would be contained in the 200 μl dose, and subcutaneously administered. The emulsion was prepared by mixing the required amount of the OVA257-264 peptide in PBS in advance, and adding an equal amount of IFA (SIGMA: F5506) thereto.
Seven days after final immunization, the spleen of each recipient mouse was collected and finely loosened using tweezers, and splenocytes were recovered. A pellet of splenocytes was prepared in a 15-ml tube, and 2 ml of an FCS-free complete RPMI containing the OVA257-264 peptide (final concentration 10^−5 M) was added thereto. With the lid of the tube loosened, the tube was allowed to stand in an incubator at 37° C. with 5% CO2 for 1 hour. Subsequently, the culture broth RPMI (containing 10% FCS) was added to adjust the total volume to 20 ml, and 2 ml each was put into a 24-well plate.
After 5 days of cultivation, the cells were recovered and stained using the H-2K^b+OVA257-264-specific tetramer (MBL: TS-5001-1) and FITC-anti-mouse CD8a (eBioscience: 11-0081), and induction of specific CTL was confirmed using FACS Canto. […]

For experiment [4], the system named is OT-II CD4+ T cells. The experiment is described as follows: In vivo division of OT-II CD4+ T cells. On the set-up: species or system mouse. Particulars: series of doses injected into recipient mice.
Experiment [5] has as its system OT-II CD4+ T cells. The experiment is described as follows: In vitro antigen presentation assay, DC2.4 cells with OT-II CD4+ T cells, IFNγ. In kind it is cell-based, mouse. Particulars: DC2.4 pulsed with series of doses, IFNγ secreted. Here is the method:
(§1) Next, DC2.4 cells were pulsed with a series of doses of 6H8-OVA (fractions 15 to 19) and free OVA (fraction 33) and incubated along with OT-I CD8^+ T cells and OT-II CD4^+ T cells [splenocytes of an OT-II mouse were recovered, and CD11b-positive cells were removed according to a standard protocol using BD IMag anti mouse CD11b magnetic particles DM (BD Biosciences Pharmingen, 558013); next, CD4-positive cells were purified according to a standard protocol using BD IMag anti mouse CD4 particles DM (BD Biosciences Pharmingen, 551539); the cells obtained were used as the OT-II CD4^+ T cells], and the amount of IFNγ secreted from T cells was measured, whereby the cross-presentation potential of 6H8-OVA was evaluated.

In experiment [6] the test system is OT-I CD8+ T cells. As to the kind of experiment: In vitro cross-presentation assay, DC2.4 cells with OT-I CD8+ T cells, IFNγ. The format is cell-based, mouse. As to the method: A cross-presentation assay was performed using each fraction as an antigen. DC2.4 cells were pulsed with 5 μg/ml (30 μg/ml, only for the fraction 33) of each fraction or 1 mg/ml of free OVA for 3 hours. […]
as §1

B1: 6H8: anti-HSP90 monoclonal antibody produced by hybridoma FERM BP-11222; epitope … (antibody)
VH: QVQLQQSGPELVKPGASVRISCKASGYTFTSYYIHWVKQRPGQGLEWIGWIYPGNVNTKYNEKFKGKATLTADKSSSTAYMQLSSLTSEDSAVYFCARYGNYPFAYWGQGTLVTVSAAKTTAPSVYPLAPVCGDTTGSSVTLGCLVKGYF
VL: DVVMTQTPLSLPVSLGDQASISCRSSQSLVHSNGNTYLHWYLQKPGQSPKLLIYKVSNRFSGVPDRFSGSGSGTDFTLKISRVEAEDLGVYFCSQSTHVPPTFGGGTKLEIKRADAAPTVSIFPPSSEQLTSGGASVVCFLNNFYPKDINVKWKIDGS
For B1, in the experiment on OT-I CD8+ T cells [1] (free antibody 30 μg with 6H8-OVA 0.3 μg), the “effect of concurrently administered free antibody on OT-I CD8+ T cell proliferation reaction by 6H8-OVA” value is recorded as “remarkably enhanced”. In addition, the “effect of antibody pre-treatment on the cross-presentation effect of 6H8-OVA” value in experiment [2] was “attenuated”. In addition, in experiment [3], the “production of IL-1α, IL-1β, IL-2, IL-4, IL-9, IL-10, IL-12(p40), IL-12(p70), IL-13, G-CSF, GM-CSF, KC, MCP-1, MIP-1α, MIP-1β, RANTES” value is recorded as “induced”.

B2: 6H8-OVA: high molecular weight conjugate of the 6H8 antibody and maleimide-activated OVA (conjugate)
VH: B1 VH
VL: B1 VL
chain: GSIGAASMEFCFDVFKELKVHHANENIFYCPIAIMSALAMVYLGAKDSTRTQINKVVRFDKLPGFGDSIEAQCGTSVNVHSSLRDILNQITKPNDVYSFSLASRLYAEERYPILPEYLQCVKELYRGGLEPINFQTAADQARELINSWVESQTNGIIRNVLQPSSVDSQTAMVLVNAIVFKGLWEKAFKDEDTQAMPFRVTEQESKPVQMMYQIGLFRVASMASEKMKILELPFASGTMSMLVLLPDEVSGLEQLESIINFEKLTEWTSSNVMEERKIKVYLPRMKMEEKYNLTSVLMAMGITDVFSSSANLSGISSAESLKISQAVHAAHAEINEAGREVVGSAEAGVDAASVSEEFRADHPFLFCIKHIATNAVLFFGRCVSP
For B2, in the experiment on specific CTL, the “CTL induction compared with IFA+OVA” value is “as effective as, or more effective than, IFA+OVA”. Further, in the experiment with OT-I CD8+ T cells [1] (0.3 μg alone), the “proliferation reaction of adoptively transferred OT-I CD8+ T cells” value was “slight proliferation reaction”. The “promotion of the division of OT-II CD4+ T cells” value with OT-II CD4+ T cells [4] is reported as “required a higher dose”. In addition, the “antigen presentation to OT-II CD4+ T cells” value with OT-II CD4+ T cells [5] is given as “weak, although it was better than free OVA”. The “induction of IFNγ production by OT-I CD8+ T cells” value in the experiment on OT-I CD8+ T cells [6] (DC2.4 pulsed 3 hours with fractions 15 to 21, less than 5 μg/ml protein) is reported as “efficiently induced IFNγ production by CD8^+ T cells”. Also, in the experiment on OT-I CD8+ T cells [6] (DC2.4 pulsed with series of doses, IFNγ secreted), the “effectiveness on OT-I CD8+ T cells relative to free OVA” value was “at least 100 times”.

The values are drawn from patent US20110280881A1, “NOVEL ANTI-HSP90 MONOCLONAL ANTIBODY” (RIKEN, priority 2010, published 2011).
